# Source: the Immune Epitope Database (IEDB)
# What was measured:
# HLA-B*07:02 [1] = assay: IEDB peptide-MHC binding, purified MHC/competitive/radioactivity; filed as Kd, often an IC50 or EC50 that approximates it; ≥ and ≤ were set here for values at or beyond the usual limits of such assays
# HLA-B*51:01 = assay: as above
# HLA-B*18:01 [2] = assay: IEDB peptide-MHC binding, purified MHC/direct/fluorescence; filed as Kd, often an IC50 or EC50 that approximates it; ≥ and ≤ were set here for values at or beyond the usual limits of such assays
# HLA-B*40:01 = assay: as above
# HLA-B*44:02 = assay: as above
# HLA-B*35:01 = assay: IEDB peptide-MHC binding, purified MHC/competitive/radioactivity; filed as Kd, often an IC50 or EC50 that approximates it; ≥ and ≤ were set here for values at or beyond the usual limits of such assays
# HLA-A*02:01 [3] = assay: IEDB peptide-MHC binding, purified MHC/competitive/fluorescence; ≥ and ≤ were set here for values at or beyond the usual limits of such assays
# HLA-A*24:02 = assay: as above
# HLA-B*18:01 [4] = assay: IEDB peptide-MHC binding, purified MHC/competitive/fluorescence; filed as Kd, often an IC50 or EC50 that approximates it; ≥ and ≤ were set here for values at or beyond the usual limits of such assays; details: source organism: Homo sapiens
# HLA-A*02:01 [5] = assay: as above; details: source organism: Homo sapiens
# HLA-B*27:03 = assay: as above; details: source organism: Homo sapiens
# HLA-B*07:02 [6] = assay: IEDB peptide-MHC binding, purified MHC/direct/fluorescence; filed as Kd, often an IC50 or EC50 that approximates it; ≥ and ≤ were set here for values at or beyond the usual limits of such assays
# HLA-B*53:01 = assay: IEDB peptide-MHC binding, purified MHC/competitive/radioactivity; filed as Kd, often an IC50 or EC50 that approximates it; ≥ and ≤ were set here for values at or beyond the usual limits of such assays; details: source organism: Dengue virus 3 Sri Lanka/1266/2000
# HLA-A*26:01 = assay: IEDB peptide-MHC binding, purified MHC/direct/fluorescence; filed as Kd, often an IC50 or EC50 that approximates it; ≥ and ≤ were set here for values at or beyond the usual limits of such assays; details: source organism: Salmonella enterica subsp. enterica serovar Typhi
# HLA-B*15:01 = assay: as above; details: source organism: Salmonella enterica subsp. enterica serovar Typhi
# HLA-A*02:01 [7] = assay: as above; details: source organism: Salmonella enterica subsp. enterica serovar Typhi
# HLA-B*08:01 = assay: as above; details: source organism: Salmonella enterica subsp. enterica serovar Typhi
# HLA-A*69:01 = assay: as above; details: source organism: Salmonella enterica subsp. enterica serovar Typhi
# HLA-A*11:01 = assay: as above; details: source organism: Salmonella enterica subsp. enterica serovar Typhi
# HLA-A*31:01 = assay: as above; details: source organism: Salmonella enterica subsp. enterica serovar Typhi
# HLA-B*27:05 = assay: as above; details: source organism: Salmonella enterica subsp. enterica serovar Typhi
# HLA-A*03:01 = assay: as above; details: source organism: Salmonella enterica subsp. enterica serovar Typhi
# HLA-B*58:01 = assay: as above; details: source organism: Salmonella enterica subsp. enterica serovar Typhi
# HLA-A*01:01 = assay: as above; details: source organism: Salmonella enterica subsp. enterica serovar Typhi
# [8] = source organism: Dengue virus 2 Jamaica/1409/1983
# [9] = source organism: Orthohantavirus hantanense
# [10] = source organism: Dengue virus 3 Sri Lanka/1266/2000
# [11] = source organism: Giardia lamblia ATCC 50803
# [12] = source organism: Sudan ebolavirus
# [13] = source organism: Salmonella enterica subsp. enterica serovar Typhi
sequence,measurement,setting,value
TPRGTVMDII,Kd,HLA-B*07:02 [1]; [8],6.2 nM
same,Kd,HLA-B*51:01; [8],2420 nM
RELGLDISL,Kd,HLA-B*18:01 [2]; [9],2.7 nM
same,Kd,HLA-B*40:01; [9],1.2 nM
same,Kd,HLA-B*44:02; [9],3280 nM
WHYDDENPY,Kd,HLA-B*35:01; source organism: Dengue virus 3 Martinique/1243/1999,2620 nM
VFLPNPAFI,IC50,HLA-A*02:01 [3]; source organism: Variola virus,715 nM
same,IC50,HLA-A*24:02; source organism: Variola virus,18500 nM
LALMATFKM,Kd,HLA-B*35:01; source organism: Dengue virus 1 Brazil/97-11/1997,110 nM
GVRQFSGWM,Kd,HLA-B*18:01 [4],≥ 20000 nM
same,Kd,HLA-A*02:01 [5],≥ 20000 nM
same,Kd,HLA-B*27:03,≥ 20000 nM
same,Kd,HLA-B*07:02 [6]; source organism: Homo sapiens,22.1 nM
LPTYLSSRA,Kd,HLA-B*51:01; source organism: Dengue virus 4 Philippines/H241/1956,≥ 23700 nM
LPAALAFHL,Kd,HLA-B*07:02 [1]; [10],72.4 nM
same,Kd,HLA-B*51:01; [10],828 nM
same,Kd,HLA-B*53:01,10.7 nM
TYVQLESRF,IC50,HLA-A*24:02; source organism: Zaire ebolavirus,56400 nM
WEPPERHIL,Kd,HLA-B*18:01 [2]; [11],≤ 1 nM
same,Kd,HLA-B*40:01; [11],≥ 20000 nM
KSSFFVWVI,IC50,HLA-A*02:01 [3]; [12],274 nM
same,IC50,HLA-A*24:02; [12],69.4 nM
REILFHNTM,Kd,HLA-A*26:01,≥ 20000 nM
same,Kd,HLA-B*15:01,180 nM
same,Kd,HLA-A*02:01 [7],≥ 20000 nM
same,Kd,HLA-B*08:01,1310 nM
same,Kd,HLA-B*40:01; [13],5.66 nM
same,Kd,HLA-A*69:01,≥ 20000 nM
same,Kd,HLA-A*11:01,≥ 20000 nM
same,Kd,HLA-B*07:02 [6]; [13],≥ 20000 nM
same,Kd,HLA-A*31:01,≥ 20000 nM
same,Kd,HLA-B*44:02; [13],≥ 20000 nM
same,Kd,HLA-B*27:05,≥ 20000 nM
same,Kd,HLA-A*03:01,≥ 20000 nM
same,Kd,HLA-B*58:01,≥ 20000 nM
same,Kd,HLA-A*01:01,≥ 20000 nM
